Where two headings read alike, the source gives them in different places.

Data set [1] addresses BtuF (Escherichia coli) (UniProt P37028). The settings on record: cited from earlier work.
For data set [2] the target is unchanged. The settings on record: cited from earlier work. The source holds these as a separate data set.
Substrate in data set [3]: Nc1ncnc2c1ncn2[C@@H]1O[C@H](COP(=O)(O)OP(=O)(O)OP(=O)(O)O)[C@@H](O)[C@H]1O
As to the kind of experiment: ATPase assay in proteoliposomes, malachite green phosphate detection. The class given is biochemical, Escherichia coli. The settings on record: MgCl2, 37 °C.

The target in data set [4] is T1, FhuCB subcomplex (membrane subunit FhuB and cytosolic ATPase FhuC of the ferrichrome importer), wild type (Escherichia coli, UniProt P07821 1-265; P06972 1-660, red-tris-NTA 2nd generation dye on the His-tag (in the MST experiments)).
T1 construct: cloned from the genome with the operon; a thrombin site stands between the His-tag and FhuC; Made from FhuCB-pET15b (FhuD gene deleted from FhuCDB-pET15b); The copy numbers (two FhuC, one FhuB) are told for the FhuCDB structure; In the gel filtration experiment the same chains came from the FhuCDB construct, co-expressed with FhuD; also called Fhu importer; wild-type FhuCB; source: E. coli …
T1 sequence (looked up) 1: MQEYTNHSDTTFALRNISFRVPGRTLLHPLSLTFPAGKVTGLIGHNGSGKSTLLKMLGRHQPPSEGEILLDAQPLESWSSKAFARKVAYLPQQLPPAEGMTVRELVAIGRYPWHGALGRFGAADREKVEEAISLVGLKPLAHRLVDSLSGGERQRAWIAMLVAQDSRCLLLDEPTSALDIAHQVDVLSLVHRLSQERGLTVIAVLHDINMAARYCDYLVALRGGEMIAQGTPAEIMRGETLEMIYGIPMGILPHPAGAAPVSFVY
T1 sequence (looked up) 2: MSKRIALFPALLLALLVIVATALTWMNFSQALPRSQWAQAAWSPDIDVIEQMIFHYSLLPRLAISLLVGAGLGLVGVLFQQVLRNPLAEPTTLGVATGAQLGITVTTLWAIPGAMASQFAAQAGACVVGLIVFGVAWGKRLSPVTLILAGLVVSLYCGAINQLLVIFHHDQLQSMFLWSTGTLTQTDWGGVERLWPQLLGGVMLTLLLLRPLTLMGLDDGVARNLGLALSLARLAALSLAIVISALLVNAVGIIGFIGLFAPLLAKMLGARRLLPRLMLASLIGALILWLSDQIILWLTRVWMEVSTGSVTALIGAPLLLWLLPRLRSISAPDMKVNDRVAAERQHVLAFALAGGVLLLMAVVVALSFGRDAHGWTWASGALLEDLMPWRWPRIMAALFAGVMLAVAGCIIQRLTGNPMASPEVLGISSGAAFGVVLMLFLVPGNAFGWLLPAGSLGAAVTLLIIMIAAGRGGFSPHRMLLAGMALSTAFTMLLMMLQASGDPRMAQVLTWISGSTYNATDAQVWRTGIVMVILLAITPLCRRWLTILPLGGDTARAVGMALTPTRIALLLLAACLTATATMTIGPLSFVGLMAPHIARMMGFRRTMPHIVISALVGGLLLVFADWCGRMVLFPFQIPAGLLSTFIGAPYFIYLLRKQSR
Put plainly: MST; 40 nM FhuCB in detergent, His-tag labelled with red-tris-NTA 2nd generation dye; serial dilution of 1.6 μM FhuD with substrate ferrichrome; with ATP; Monolith NT.115pico, 20% LED power, medium MST power. The settings on record: both partners purified.

Data set [5] deals with T1, FhuCB subcomplex (membrane subunit FhuB …). As to the kind of experiment: MST; 40 nM FhuCB in detergent, His-tag labelled with red-tris-NTA 2nd generation dye; serial dilution of 1.6 μM FhuD with substrate ferrichrome; without ATP-Mg; Monolith NT.115pico, 20% LED power, medium MST power. The settings on record: both partners purified.

BtuF (Escherichia coli), sequence (P37028 23-266): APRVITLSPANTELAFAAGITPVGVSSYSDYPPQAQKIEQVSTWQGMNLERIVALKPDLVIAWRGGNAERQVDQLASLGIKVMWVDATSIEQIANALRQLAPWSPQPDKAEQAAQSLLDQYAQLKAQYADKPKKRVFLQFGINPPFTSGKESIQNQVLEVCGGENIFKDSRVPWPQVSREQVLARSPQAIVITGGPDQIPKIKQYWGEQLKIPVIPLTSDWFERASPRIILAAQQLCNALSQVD

The term Kd denotes the concentration at which binding is half-saturated. Regarding BtuCD (from UniProt P06609), the Kd in data set [1] was 0.00012 nM; in data set [2] it was 21.1 nM.

B1: FhuCB subcomplex (Escherichia coli K-12) (protein)
chain: T1 sequence (looked up) 1
notes: full-length FhuB and FhuC without FhuD; N-terminal His-tag and thrombin site on FhuC; pET15b, E. coli BL21(DE3) C43; purified in LMNG, reconstituted in E. coli polar lipid proteoliposomes; with Iron(3+)-hydroxamate import system permease protein FhuB
Usually Km stands for the substrate concentration at which the rate is half of its maximum. Regarding B1, the Km in data set [3] (Michaelis-Menten fit with Hill coefficient (cooperative), no FhuD) amounted to 690 ± 80 µM.

B2: FhuCB + FhuD (ATPase assay) (Escherichia coli K-12) (protein)
chain: T1 sequence (looked up) 1
notes: FhuCB (N-terminal His-tag and thrombin site on FhuC) in proteoliposomes with purified FhuD enclosed; with Iron(3+)-hydroxamate import system permease protein FhuB
Consider B2, for which, in data set [3] (Michaelis-Menten fit with Hill coefficient, 1 μM FhuD enclosed, no ferrichrome), the Km came to 740 ± 50 µM.

B3: FhuD, periplasmic substrate-binding protein, expressed alone (natural protein, Escherichia coli, UniProt P07822 31-296, looked up)
chain: AAIDPNRIVALEWLPVELLLALGIVPYGVADTINYRLWVSEPPLPDSVIDVGLRTEPNLELLTEMKPSFMVWSAGYGPSPEMLARIAPGRGFNFSDGKQPLAMARKSLTEMADLLNLQSAAETHLAQYEDFIRSMKPRFVKRGARPLLLTTLIDPRHMLVFGPNSLFQEILDEYGIPNAWQGETNFWGSTAVSIDRLAAYKDVDVLCFDHDNSKDMDALMATPLWQAMPFVRAGRFQRVPAVWFYGATLSAMHFVRVLDNAIGGKA
notes: the gene was amplified and cloned into pET15b; Used without substrate and loaded with the small molecule ferrichrome (told apart by the assays); also called SBP; ferrichrome-loaded FhuD
With B3, the Kd in data set [4] was ~1.03 nM; in data set [5], ~12.2 nM.
